How the values were obtained:
human FcγRI = target: T1, human FcγRI (Homo sapiens, UniProt P12314); experiment: Promega ADCC Reporter Bioassay, FcγRI (FIG. 7); type: cell-based; conditions: target cells: integrin avβ3-expressing human pancreatic cancer cells; Raji effector line with NFAT-induced luciferase
T1 construct: host or cells: Raji cell line (so in the source), stably expressing the receptor and NFAT-induced luciferase
Description: (§1) Integrin avβ3-expressing human pancreatic cancer cells were utilized as “target cells” to assess the ability of anti-avβ3 antibodies to elicit effector cell activation using a Promega ADCC Reporter Bioassay in which “effector cell” activation is evaluated using a Raji cell line stably expressing the human FcγR I or III and NFAT-induced luciferase. Six antibody dilutions were tested per antibody, with FcγR activation shown as fold change relative to treatment with assay buffer containing no antibody.
(§2) Whereas NK cells utilize only FcγRIII/CD16 to engage antibody Fc regions, macrophages can utilize FcγRI/CD64.

human FcγRIII = experiment: Promega ADCC Reporter Bioassay, FcγRIII (FIG. 7); type: cell-based; conditions: target cells: integrin avβ3-expressing human pancreatic cancer cells; Raji effector line with NFAT-induced luciferase
Description: as §1, §2

integrin αvβ3 = integrin αvβ3 (Homo sapiens, UniProt P05106+P06756); experiment: In vitro cell adhesion assay on fibrinogen (FIG. 8); type: cell-based
Description: (§3) Antibody affinity is evaluated using an in vitro cell adhesion assay. 48 well tissue culture plates were coated with the integrin avβ3 ligand fibrinogen or the integrin β1 ligand type I collagen, and 2000-10000 cells were added in the presence of each antibody for a range of 2-fold dilutions starting at 5 μg/mL in duplicate. Plates were washed at the endpoint and cells attached to the substrate detected using crystal violet.
(§4) Each antibody was tested for its ability to prevent the adhesion of integrin αvβ3-expressing tumor cells to the αvβ3-mediated adhesion to fibrinogen as well as the β1-integrin mediated adhesion to type I collagen.

[1] = test system: αvβ3-expressing human lung cancer cells; experiment: In vitro ADCC, human NK cells as effector cells (FIG. 10B); type: cell-based; conditions: increasing E:T
Text: (A) In vitro ADCC for primary human monocyte-derived macrophages as effector cells. (B). In vitro ADCC for human NK cells as effector cells. Graphs show effect of increasing effector-to-target ratio (E:T) on death of αvβ3-expressing human lung cancer cells.
This distinction could produce a therapeutic advantage by achieving matching between the antigen (integrin αvβ3) and the types of effector cells that are particularly enriched in αvβ3-expressing tumors, such as macrophages.

integrin β1 = integrin β1 (Homo sapiens, UniProt P05556); experiment: In vitro cell adhesion assay on type I collagen (FIG. 8); type: cell-based; set-up: endogenous in cells; conditions: 2-fold dilutions starting at 5 μg/mL
Description: as §3, §4

[2] = test system: HCC827 αvβ3-negative human EGFR mutant lung cancer cells; experiment: HCC827 xenograft, delay of onset of erlotinib resistance; type: in vivo, nu/nu mice; conditions: erlotinib alone, oral, 6.25 mg/kg, six times/week
Description: Briefly, HCC827 (5×10^6 tumor cells in 100 μl of PBS) αvβ3-negative human EGFR mutant lung cancer cells were subcutaneously injected to the right flank of female nu/nu mice (Charles River, 088, 8-10 weeks old). Tumors were measured with calipers twice per week. […] Tumors were placed into liquid nitrogen, OCT compound, or 10% formalin.

integrin αvβ3, sequence (P06756 31-889 limits assumed): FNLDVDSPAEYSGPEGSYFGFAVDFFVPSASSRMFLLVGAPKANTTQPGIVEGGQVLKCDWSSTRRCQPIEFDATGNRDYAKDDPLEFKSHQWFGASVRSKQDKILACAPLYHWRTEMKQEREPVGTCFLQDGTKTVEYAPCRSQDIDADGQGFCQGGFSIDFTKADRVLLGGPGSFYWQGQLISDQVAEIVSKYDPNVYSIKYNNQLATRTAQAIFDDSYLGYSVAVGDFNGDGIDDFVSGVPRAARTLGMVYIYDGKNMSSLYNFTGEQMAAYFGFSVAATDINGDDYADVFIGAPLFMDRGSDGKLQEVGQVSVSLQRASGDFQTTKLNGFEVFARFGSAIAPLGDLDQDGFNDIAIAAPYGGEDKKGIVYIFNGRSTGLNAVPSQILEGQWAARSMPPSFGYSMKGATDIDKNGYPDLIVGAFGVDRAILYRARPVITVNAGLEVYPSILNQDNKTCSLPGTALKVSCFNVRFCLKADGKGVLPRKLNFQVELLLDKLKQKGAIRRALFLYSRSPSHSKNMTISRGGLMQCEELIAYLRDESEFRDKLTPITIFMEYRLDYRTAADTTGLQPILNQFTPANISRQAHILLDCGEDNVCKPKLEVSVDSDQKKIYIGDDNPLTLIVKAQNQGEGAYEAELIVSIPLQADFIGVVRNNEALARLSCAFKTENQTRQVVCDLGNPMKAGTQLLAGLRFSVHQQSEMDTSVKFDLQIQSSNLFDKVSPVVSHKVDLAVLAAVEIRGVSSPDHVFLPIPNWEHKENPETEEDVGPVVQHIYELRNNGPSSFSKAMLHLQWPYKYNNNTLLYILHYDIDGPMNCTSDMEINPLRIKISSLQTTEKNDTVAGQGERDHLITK
integrin αvβ3, sequence (P06756 891-1048 limits assumed): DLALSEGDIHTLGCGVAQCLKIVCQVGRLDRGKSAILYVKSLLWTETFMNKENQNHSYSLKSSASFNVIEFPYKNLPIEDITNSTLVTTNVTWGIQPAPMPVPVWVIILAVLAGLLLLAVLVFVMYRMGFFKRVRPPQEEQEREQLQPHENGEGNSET
integrin αvβ3, sequence (P05106 27-788): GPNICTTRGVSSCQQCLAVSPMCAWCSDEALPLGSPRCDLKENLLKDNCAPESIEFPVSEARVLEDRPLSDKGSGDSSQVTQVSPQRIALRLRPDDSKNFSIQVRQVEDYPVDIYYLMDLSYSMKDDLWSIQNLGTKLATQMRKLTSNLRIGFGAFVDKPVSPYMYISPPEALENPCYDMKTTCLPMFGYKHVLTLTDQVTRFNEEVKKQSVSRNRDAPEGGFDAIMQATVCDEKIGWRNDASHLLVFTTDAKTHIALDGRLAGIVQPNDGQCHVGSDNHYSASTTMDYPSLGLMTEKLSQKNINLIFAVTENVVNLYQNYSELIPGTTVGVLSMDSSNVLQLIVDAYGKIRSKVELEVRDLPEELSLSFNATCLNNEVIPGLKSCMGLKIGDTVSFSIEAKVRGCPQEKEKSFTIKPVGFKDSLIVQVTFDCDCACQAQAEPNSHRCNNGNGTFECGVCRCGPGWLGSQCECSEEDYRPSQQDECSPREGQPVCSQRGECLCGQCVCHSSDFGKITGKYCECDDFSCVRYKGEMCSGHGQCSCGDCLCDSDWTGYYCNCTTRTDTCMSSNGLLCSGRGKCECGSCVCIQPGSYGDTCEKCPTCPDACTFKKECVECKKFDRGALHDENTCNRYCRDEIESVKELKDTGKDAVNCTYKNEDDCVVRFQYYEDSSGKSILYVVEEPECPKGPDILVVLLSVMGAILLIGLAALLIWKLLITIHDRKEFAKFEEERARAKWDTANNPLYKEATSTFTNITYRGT
integrin β1, sequence (P05556 21-798): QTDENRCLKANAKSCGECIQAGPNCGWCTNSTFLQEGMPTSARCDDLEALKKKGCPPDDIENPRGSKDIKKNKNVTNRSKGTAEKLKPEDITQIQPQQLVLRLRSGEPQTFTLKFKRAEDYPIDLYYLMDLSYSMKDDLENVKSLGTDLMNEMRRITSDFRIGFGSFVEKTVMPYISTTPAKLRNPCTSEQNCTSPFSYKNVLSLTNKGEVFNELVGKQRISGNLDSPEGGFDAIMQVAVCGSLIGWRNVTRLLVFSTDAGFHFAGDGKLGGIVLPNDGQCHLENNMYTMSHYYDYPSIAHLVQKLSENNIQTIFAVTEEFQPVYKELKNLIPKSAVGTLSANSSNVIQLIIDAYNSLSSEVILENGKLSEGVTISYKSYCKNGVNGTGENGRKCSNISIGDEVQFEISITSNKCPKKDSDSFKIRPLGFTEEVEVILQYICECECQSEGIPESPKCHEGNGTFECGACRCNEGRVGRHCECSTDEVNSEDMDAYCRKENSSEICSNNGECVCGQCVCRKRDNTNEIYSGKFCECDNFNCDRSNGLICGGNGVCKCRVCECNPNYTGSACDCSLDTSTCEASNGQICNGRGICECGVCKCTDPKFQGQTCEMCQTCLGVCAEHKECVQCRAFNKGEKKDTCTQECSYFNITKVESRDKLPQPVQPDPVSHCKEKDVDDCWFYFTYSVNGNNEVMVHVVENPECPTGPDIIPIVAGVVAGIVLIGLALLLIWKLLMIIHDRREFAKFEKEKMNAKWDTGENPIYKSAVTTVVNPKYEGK
T1 sequence (P12314 16-374): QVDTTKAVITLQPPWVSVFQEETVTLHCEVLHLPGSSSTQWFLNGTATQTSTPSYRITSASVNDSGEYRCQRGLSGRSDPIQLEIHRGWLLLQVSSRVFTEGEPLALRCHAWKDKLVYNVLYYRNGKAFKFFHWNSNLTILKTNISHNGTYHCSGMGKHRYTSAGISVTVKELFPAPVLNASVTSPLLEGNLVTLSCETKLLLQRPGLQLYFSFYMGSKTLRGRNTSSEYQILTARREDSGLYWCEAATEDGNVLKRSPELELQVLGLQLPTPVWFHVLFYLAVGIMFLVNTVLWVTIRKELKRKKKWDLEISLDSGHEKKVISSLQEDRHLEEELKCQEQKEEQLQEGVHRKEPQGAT

Compound | FcγRI activation on effector cells (human FcγRI) | FcγRIII activation on effector cells (human FcγRIII) | αvβ3-mediated adhesion to fibrinogen (integrin αvβ3; 2-fold dilutions starting at 5 μg/mL) | antibody affinity, shown by ability to block αvβ3-dependent cell adhesion (integrin αvβ3; comparison of isotype variants) | ADCC with human NK cells as effector cells [1] | β1-integrin mediated adhesion to type I collagen (integrin β1) | tumor size [2]
hLM609-hIgG1: humanized LM609, hIgG1 isotype (etaracizumab/Vitaxin); heavy chain SEQ ID NO:9, light chain SEQ ID NO:10 [reference compound] | lower levels of engagement | can strongly activate FcγRIII | blocked adhesion to fibrinogen | equivalent | engages NK cells | without disrupting β1-mediated adhesion to collagen | –
C#Cc1cccc(Nc2ncnc3cc(OCCOC)c(OCCOC)cc23)c1 [erlotinib] | – | – | – | – | – | – | initial reduction in tumor size, this is followed by an eventual tumor re-growth

— patent publication US20230140868A1, “COMPOSITIONS AND METHODS FOR TREATING CANCER” (Alpha Beta Holdings, LLC, priority 2020, published 2023)
